# According to PMC4675558:
# T1: Cdc53(267-851)/GST-Rbx1 complex expressed in bacteria, Q08273
# T1 chain: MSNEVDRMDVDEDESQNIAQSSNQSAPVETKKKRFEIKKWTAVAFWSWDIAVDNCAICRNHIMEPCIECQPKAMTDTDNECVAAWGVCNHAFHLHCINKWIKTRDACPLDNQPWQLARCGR
# Biological target: T1, Cdc53(267-851)/GST-Rbx1 complex …
# Test: in vitro binding assay (MBP pull-down on amylose beads, Western blot quantification)
# Conditions: chain shown with the change, bacterial lysate expressing Cdc53(267-851)/Rbx1, normalized to Amido black signal of MBP tagged protein, read off a plot
binder,measurement,setting,value
"(MBP)-Met30(1-186), P39014 M178E; I179E (protein) MRRERQRMMSFEDKDKDDLDNSNSNNSSEMTDTAMMPPLKRLLITGSSDDLAQGSSGKKKMTMATRSPSSSPDLATNDSGTRVQPLPEYNFTKFCYRHNPDIQFSPTHTACYKQDLKRTQEINANIAKLPLQEQSDIHHIISKYSNSNDKIRKLILDGILSTSCFPQLSYISSLVTHEEKIDFISI",response (Cdc53/Amido Black),"Exp 1, parent: est. 3.1",0.15
same,response (Cdc53/Amido Black),"Exp 2, parent: est. 7.3",2.9
same,response (Cdc53/Amido Black),"Exp 3, parent: est. 4.6",0.45
